# Assay results: a protein production outcome set (Wang et al. 2014)
# Assay: label from the status in PepcDB records
row,Sequence,protein production
1,MKISAIKTWLPLLIIIVLLGLFLGLGLNKYVSFASLRDNHEWLIAITKSHFYLVSFVFIIIYTVAVALSIPGAIFLTLIGGFLFGILWGTFLVVLSATLGATILFFAVQSSLGEVFSKRASGWVKRMRSGFKDNAFSYLLTLRLIPLFPFWVINIVSAVLGVSASTFIIATFIGIIPGSIVYVSVGNGLGELFAASLQPNLGIIFEPKFILPLLGLAALSLIPVFYKKKGKQGTEKMKDKDLFCDLAIIGGGSAGLSIAAGCSQLGLQVVLVEPNKMGGDCLNYGCIPSKTLLNTAKIFYQTKHSTVLGIQAKSVKIDFLQVMQQVHNVIACIAKNDSVERFTSLGVQVIQEAGHFIGPKQFKLKRKIIRAKHFVIATGSSPAIPPIQNLNKVSYLTNETIFNLKVQPEHLIVIGGGPIGCELAQAFAMLGSKVTILEAFTILPKDDADCVAIIRSQLESMQIALYEQIKINKIEESADKTISVHLENQDNPITITGSHLLVSTGRVANVDGLGLEKAGVQYTTRGINTNARLQTTNKKIYAIGDVTGPYQFTHMASYQAGIALRNIAFKWPAKVDYKAVPWVTYTEPELAHVGLLASEALKDPTLKITEFAFAEVDRAQAENKVNGKIKIITGKKAKILGVSIVGAHAGELILPWVIAVKERKSLRTFTDAIAAYPTFSEISKRVAGEYYKPFIFSSKIRTFVRWLNKLG,failed
2,MSTRSARIVVVSSRAAAGVYTDDCGPIIAGWLEQHGFSSVQPQVVADGNPVGEALHDAVNAGVDVIITSGGTGISPTDTTPEHTVAVLDYVIPGLADAIRRSGLPKVPTSVLSRGVCGVAGRTLIINLPGSPGGVRDGLGVLADVLDHALEQIAGGDHPR,not failed
3,MATLGANASLYSEQHRITYYECDRTGRATLTTLIDIAVLASEDQSDALGLTTEMVQSHGVGWVVTQYAIDITRMPRQDEVVTIAVRGSAYNPYFAYREFWIRDADGQQLAYITSIWVMMSQTTRRIVKILPELVAPYQSEVVKRIPRLPRPISFEATDTTITKPYHVRFFDIDPNRHVNNAHYFDWLVDTLPATFLLQHDLVHVDVRYENEVKYGQTVTAHANILPSEVADQVTTSHLIEVDDEKCCEVTIQWRTLPEPIQ,not failed
4,MAAGTFTAQNKVRPGVYINFKSEPQAAGTLGERGIVSMPLILSWGEPGKMITIEAGDDVFPKLGYSIMDAQLRLINEALKRAKTLLLYRLNAGTKAAVTVGNLTVTAKWGGARGNDITLVIQENIDDETKFDVSTLVDGAELDKQTVSDIAGLAANDWVIFSGTGALTETAGAPLINGSDGAVTNQAYIDYLAAVEIFDFNTIALPSTDDALKATFTAFAKRLRDDEGKKIQVVLENYPAADYEGVISVKNGVVLADGTILTAAQATAWVAGATAGARVNESLTYQGYDEAVDVAPRYTNAQIIAALQAGEFLFTASDNQALVEQDINTLTSFTADKGKQFAKNRVIRVLDGINNDFVRIFSKFYIGKVSNNADGRNLLKSECINYMNTLQDIDAIKNFDGQTDLTVQSGNDVDAVYIEAYAWPVDSIEKIYVRVRIKLEHHHHHH,not failed
5,MVSAPASASSSPASSSFQSFFWQAAARPRAEPKRQALKRITLMTTDKTSPYEIHDDRFRHLIVGNAELEELYSGCRWAEGPVWFADLNCLLFSDIPNERMLRWVPDGGISVFRQPSNFTNGNTRDRQGRLVSCEHGGRRVTRTEVDGSITVLADSYGGKRLNSPNDVVVKSDGSVWFTDPTYGILSDYEGYKAEPEQKTRNVYRLDPATGKIDIAIDDFVQPNGLAFSPDETKLYVADSSYSHDISRPRHIRVFDVVDGVRLANGREFCNLDNGLPDGFRLDTAGNLWTSAGDGVHCFAPDGRLIGKIKVPQTVANLTFGGPKKNRLFITATKSLYSVYVAATGAQTPLEHHHHHH,not failed
6,MSALPSYTQNGQTITFAFAQPLQLTIVTPEIIRVFINRGEQGESYAIEGHKIQATDFTIESAGDHYIIRTSALTIHLDSERHLDTFDKDGNALITDYRGERIHLKGVDKVHERLVEAEGHSVTKAPTKSDQGYYEIIKSLAPDEYLYGLGDKTGYLNKRGFAYDNWNVDNPAPQLEILPNIYKSIPVMLGLKNGHPYGIFFDNTYQSHLDMGKESNHYYFYSAVQGNLDYYIIGGTTLKDIVTNYTYLTGRTPLPQKWTLGYQQSRWGYSASQEEVQAIADNLAKYDLPCDAIHFDVDYMDGYRVFTWDKDKYQGNPKKFITKLNQQGLKVIPIIDPGVKQDSDYHIYAEGLKKGYFVKSADGDVYINKVWPGNAAFPDFGRPEVRQWWANNGKFLTDLGVAGIWIDMNEPATFEGPIPDDVVFNDQDTPSTHKKMHNVYGHNMAKATYAGLKEQTGNRPFVITRAAYAGTQKYSTVWTGDNRSMWPHIQMMIPQLCNLGLSGFSFTGTDIGGFASDTTSELLTRWIEGAIFSPLLRNHAALGTRQQEPWAFGEPTLNIYRKYLKLRYRLIPYLYDLFAKETKTGLPIMRPVVLNYDQDPRVRDLNDEYMVGDDILVAPVVQKSQFKRLVYLPAGNWVDFWNGAEYAGNQDIVVDTPLDKLPLFVKQNTILPWGPAVSHISDEPLKAMTFRVFGTQGTYQHYQDNGRDFKYQSGEWNNYTITVDHNKVNVQLTHHGYQPVYQQITVELSDHVVKLTYDNDSSCYRE,failed
7,MTSGIDLQNSFLQSLQGFGLPPGLAKLFWIPLPSILMIIGATVGVLVVVWLERKISAAAQQRIGPEYAGPLGVLQPVADGIKLVFKEDVVPAKADPWLFTLGPVLVVLPVFLSYLIVPFGQNLVITDINVGIFLWIALSSIAPIGLLMSGYASNNKYSLLGGLRAAAQSISYEIPLSLAVLAIVMMSNSLSTIDIVDQQSGYGILGWNIWRQPVGFLIFWIAALAECERLPFDLPEAEEELVAGYQTEYAGMKFALFYLGSYVNLVLSALVFSVLYLGGWDFPIPLENVANWLGVAPTTSWLQVLMAALGITMTVLKSYFLIFIAILLRWTVPRVRIDQLLNLGWKFLLPVALANLLITAALKLTFPMAFGG,failed
8,MIAGFDAKLVASADTPLTIGNVPSGMEALLLADMARAGTSVAYVMSDGQRVADLEQILGFVAPDIPVLTLPAWDCLPYDRVSPSADTSARRLAALAGLINHAKKPHPAVVLVTVNAMLQKMAPRDVIESLGFSARPGNQIRMEDIAARLERNGFDRVATVREVGEFAVRGGILDVFVPGTEEPVRLDFFGDTLESIRTFDPASQRTIAQARSLDLNPMSEVTLTPDTIGRFRKNYLSLFGAATRDDALYQAVSEGRRYAGMEHWLPLFYEQLETAFDYLKGFRIVTDHTAKEAAKERSKLVLDYYEARRASGETKGSTQGAPYKPVSPGQIYLDGKSFEAALASVNAVRLTPFNEHDSEGRPVATLDAHVGPRWARPPTEGDSEERVNVFDLAVKHIAERRAKGWKVLITGWSEGSLDRLLQVLNEHGLEKIKPVTSLKEVKKLGKGEAACAVLSLEAGFETGTLAVIGEQDILGDRMVRRSKRRKRGADFIAEVAGLDEGSLVVHAEHGIGRFVGLQTIEAAGAPRACLELHYADDAKLFLPVENIDLLSRYGSDAAEATLDKLGGGAWQMRKAKLKKRLLDMADELIRIAAARLVRHAPALIAPDGLYDEFAARFPYDETEDQLNAIEAVRDDLGAGRPMDRLICGDVGFGKTEVALRAAFLAAMNGVQVAVVVPTTLLARQHFRTFSERFRGLPIRVQQASRLVGSKELALTKKEVAEGKTDIVVGTHALLGAGISFANLGLLIIDEEQHFGVKHKERLKELKSDVHVLTLSATPIPRTLQLAMTGVRELSLITTPPVDRMAVRTFISPFDPLVIRETLMREHYRGGQSFYVCPRLADLADIHAFLQSDVPELKVAVAHGQMAAGELEDIMNAFYDGKYDVLLSTTIVESGLDVPTANTLIVHRADMFGLAQLYQLRGRVGRSKVRAFALFTLPVNKVLTTMAERRLKVLQSLDTLGAGFQLASHDLDIRGAGNLLGEEQSGHIKEVGFELYQQMLEEAVAEVKGDEEVRDSGWSPQISVGTSVMIPEDYVPDLHLRMGLYRRLGELADISEIDGFGAEMIDRFGPLPKEVQHLLKIVYIKSLCRTANVEKVDAGPKGVVVQFRNKEFPNPAALVGYIGKQGSMAKIRPDHSLFLNRDLPTPEKRLTGAAMVMTQLAELARS,failed
9,MESYDIEGSNQNYVYINVNRWTSTEYPQNTFVYEVLRTPIGSSLESGPEIVKVGVRSTKVASKDITVTLDIDNCASIGEFSSFPDGVKVTLDKKELVIPAGSMLSSDSVTIEIEDGKWSEFVNTSYLLPLKVTSVSNAALSETHSSAYLAVSTSFTNCVPGATSVEGTLISDRSAWTATNNGVDVGTTLFDGNTRTYPSQDASSTVIVNLNGVYQNITGIRLQYYSRNYSLSSAAVYTSETGGEDYEYQGNVTFSRATPQYIRFYGAVSARYVKLELLPYSSGYGIVLSEFDMYQNELEHHHHHH,not failed
10,MRSPIKLEFSEKYDKDHAREYFLKHQDGLARRLSHKRDEQLARRALALAGEPGLVLDLPCGAGRFWPLLAEKPNRVIIGADNSEAMIETACAAQPPEVVARVRPLQTSAFAIDLPDNAVDSIFCMRLFHHIGESAHRKTILSEFQRVSRDSVILSLWVDGNFKAWRRKKLEQRRSAKAEQDNYQNRFVLPAETVEEEFRAAGFRIQERLDFLPFYAMWRVYVLRKG,failed
11,MDRSYAVFGLGEFGRSVSYELMEIGADVLAVDKNENKITAIADDVTMAISIDALNEMAYEKLGLNNMDGVVVSMSGNLSASIMAIIAAKDAGVPLVIAKASDDTQRTIFKKVGADRVVIPERDGAVRTAHNLVAKNFLDYIELSDKISIIEINVKDEWLHKPLAELNLRSKYGLNVIAIRRNNDLQTDIGPNLTFDKGDTILVVTDKHDLGL,failed
12,LRLSCFIDQPTGLFNRSRLQEDIHEALASSVDYQLVVVDMITSAFLNDIVKALGYDFSQDLVTAIKERIESLLPRTCSLYKVGPTRFGFLLPGDRPPEHLFRTILEDFETPVECRGIPVQMQVGLGVVTLNRDPNEEQDWMRMVISAADDARDRDLGWA,failed
13,MLSVVSPNRSTARAARTPFWRRAAVGLCLLGVAMSGPLAAQDPAQVNTFIGSKDDGNTYPGASAPFGLIQVSPIGAHYAGWRYDDPSIRGFGHSFLSGAGCWEQGGQVSVLPVTGRIGPGGDFDTNDAKAFDQKRYAARYTHDGEVGQAGYYKVRLTDYGGIDAEASALTRAATERYTFAPGADTGHVLVNVAQANDRHVVIGSQLQIVGDRVVEGKLTTQSFCGGHEYTTWFRLEFDRPFTAHGVWGEEGGVPGARHGMGGELKPNGAWLSFPLGKDKNARAVTVVSAISHVDAQGARSNLRADGMQGGKLLSLEQMRQRAQNGWRNALASMQVEGASNDDRSVAYTALYHALLQPLTGSDADGRYRGYDDAIHRADGWTYYEYFSLWDTYRSQNQLLALLQPTRARDIGRSLLAIQQQGGWLPRWGYANFDTNIMTGDPVTPFLVDLWRFGALQGNEAEAYAALRQNAFGQPPINSRHAGRSGNANYLANGFVQYDRAFPSKGMDVDPHHGGSATLEYALADCALAQMAQALGHGEDAAQLRKRGGNWHRVWDADVRDAETGFAGFPRPRLEDGSWYAPSDDHYSPRSEHGFHEGTAWQYQWLVQQDIPGMLQAMHGSQQAGKRLDAFFAYDDLLKDPLTAARTHWVVGPYSYYNQYRYNPNNEPDLHAPWMYTLIGQPWKTATVVRAAQQLFTNAPNGVTGNDDLGTMSAWYLFSALGLYPAVPGSGQFLLHAPRFKRVTLNLGNGKRLRIDAPGADGRALQYVDNVRWNGKAQPQVFLDWAQLQQGGTLAFALTKQAPTQGWGTQADALPASFCATPQAQ,failed
14,MAEKRTVRPFAGTERRAKGWIQEAALRMLNNNLHPDVAERPDELIVYGGIGKAARNWECYEAIVDTLLRLENDETLLIQSGKPVAVFRTHPDAPRVLIANSNLVPAWATWDHFHELDKKGLIMYGQMTAGSWIYIGSQGIVQGTYETFAEVARQHFGGTLAGTITLTAGLGGMGGAQPLAVTMNGGVCLAIEVDPARIQRRIDTNYLDTMTDSLDAALEMAKQAKEEKKALSIGLVGNAAEVLPRLVETGFVPDVLTDQTSAHDPLNGYIPAGLTLDEAAELRARDPKQYIARAKQSIAAHVRAMLAMQKQGAVTFDYGNNIRQVAKDEGVDDAFSFPGFVPAYIRPLFCEGKGPFRWVALSGDPEDIYKTDEVILREFSDNERLCHWIRMAQKRIKFQGLPARICWLGYGERAKFGKIINDMVAKGELKAPIVIGRDHLDSGSVASPNRETEGMKDGSDAIADWPILNALLNAVGGASWVSVHHGGGVGMGYSIHAGMVIVADGTKEAEKRLERVLTTDPGLGVIRHADAGYELAIRTAKEKGIDMPMLK,not failed
